B1: ParB(R105C, H133C), purified (natural protein, B. subtilis, UniProt P26497 1-282, looked up)
chain: MAKGLGKGINALFNQVDLSEETVEEIKIADLRPNPYQPRKHFDDEALAELKESVLQHGILQPLIVRKSLKGYDIVAGERRFRAAKLAGLDTVPAIVRELSEALMCEIALLENLQREDLSPLEEAQAYDSLLKCLDLTQEQLAKRLGKSRPHIANHLRLLTLPENIQQLIAEGTLSMGHGRTLLGLKNKNKLEPLVQKVIAEQLNVRQLEQLIQQLNQNVPRETKKKEPVKDAVLKERESYLQNYFGTTVNIKRQKKKGKIEIEFFSNEDLDRILELLSERES
notes: Purification as in Soh et al., 2019; source: E. coli BL21-Gold (DE3), untagged, purified (ammonium sulfate, heparin, HiTrap SP, Superdex 200)
B2: ParB(A102C, H133C), purified (natural protein, B. subtilis, UniProt P26497 1-282, looked up)
chain: MAKGLGKGINALFNQVDLSEETVEEIKIADLRPNPYQPRKHFDDEALAELKESVLQHGILQPLIVRKSLKGYDIVAGERRFRAAKLAGLDTVPAIVRELSECLMREIALLENLQREDLSPLEEAQAYDSLLKCLDLTQEQLAKRLGKSRPHIANHLRLLTLPENIQQLIAEGTLSMGHGRTLLGLKNKNKLEPLVQKVIAEQLNVRQLEQLIQQLNQNVPRETKKKEPVKDAVLKERESYLQNYFGTTVNIKRQKKKGKIEIEFFSNEDLDRILELLSERES
notes: as for B1
B3: ParB(T22C), purified (natural protein, B. subtilis, UniProt P26497 1-282, looked up)
chain: MAKGLGKGINALFNQVDLSEECVEEIKIADLRPNPYQPRKHFDDEALAELKESVLQHGILQPLIVRKSLKGYDIVAGERRFRAAKLAGLDTVPAIVRELSEALMREIALLENLQREDLSPLEEAQAYDSLLKHLDLTQEQLAKRLGKSRPHIANHLRLLTLPENIQQLIAEGTLSMGHGRTLLGLKNKNKLEPLVQKVIAEQLNVRQLEQLIQQLNQNVPRETKKKEPVKDAVLKERESYLQNYFGTTVNIKRQKKKGKIEIEFFSNEDLDRILELLSERES
notes: as for B1
B4: ParB(T22C, E78Q), purified (natural protein, B. subtilis, UniProt P26497 1-282, looked up)
chain: MAKGLGKGINALFNQVDLSEECVEEIKIADLRPNPYQPRKHFDDEALAELKESVLQHGILQPLIVRKSLKGYDIVAGQRRFRAAKLAGLDTVPAIVRELSEALMREIALLENLQREDLSPLEEAQAYDSLLKHLDLTQEQLAKRLGKSRPHIANHLRLLTLPENIQQLIAEGTLSMGHGRTLLGLKNKNKLEPLVQKVIAEQLNVRQLEQLIQQLNQNVPRETKKKEPVKDAVLKERESYLQNYFGTTVNIKRQKKKGKIEIEFFSNEDLDRILELLSERES
notes: the combination is not spelled out for the purified protein; also called EQ mutant; source: E. coli BL21-Gold (DE3), untagged, purified (ammonium sulfate, heparin, HiTrap SP, Superdex 200)
B5: ParB(T22C, E111Q), purified (natural protein, B. subtilis, UniProt P26497 1-282, looked up)
chain: MAKGLGKGINALFNQVDLSEECVEEIKIADLRPNPYQPRKHFDDEALAELKESVLQHGILQPLIVRKSLKGYDIVAGERRFRAAKLAGLDTVPAIVRELSEALMREIALLQNLQREDLSPLEEAQAYDSLLKHLDLTQEQLAKRLGKSRPHIANHLRLLTLPENIQQLIAEGTLSMGHGRTLLGLKNKNKLEPLVQKVIAEQLNVRQLEQLIQQLNQNVPRETKKKEPVKDAVLKERESYLQNYFGTTVNIKRQKKKGKIEIEFFSNEDLDRILELLSERES
notes: as for B4

Molecular target: the molecule itself
Assay: cross-linking; in vitro BMOE cysteine cross-linking of purified ParB (10 uM monomer, 1 mM BMOE, 5 min RT; 150 mM NaCl, 50 mM Tris-HCl pH 7.5, 5 mM MgCl2); without ligand, with 1 mM CTP or CTPγS, with 1 uM 40 bp parS DNA, or with both; SDS-PAGE, Coomassie

Binding result, binds:
B1, B2, B3, B4, B5

Reference: paper doi:10.1101/2021.05.05.442573, “Relief of ParB autoinhibition by parS DNA catalysis and ParB recycling by CTP hydrolysis promote bacterial centromere assembly” (bioRxiv, 2021)
